The results in this text go back to US20200239579A1.

Like-named read-outs stand apart in the source and are kept apart here.

Experiment [1] concerns the target cynomolgus monkey PD-L1 (full length, on CHO cells) (cynomolgus monkey (Macaca fascicularis)), G7PSE7. The experiment in a line: flow cytometry on CHO cells transfected with cynomolgus PD-L1, PE anti-human IgG secondary, MFI (PE).
Experiment [2] concerns the target human PD-L1 (full length, on cells) (human), Q9NZQ7. The experiment in a line: flow cytometry on MDA-MB-231 cells, PE anti-human IgG secondary, MFI (PE).
The target is the same in experiment [3].
Experiment [4] has the same target. The experiment in a line: flow cytometry on PC3 cells, PE anti-human IgG secondary, MFI (PE).
Experiment [5] shares this target. The experiment in a line: flow cytometry on SK-MES-1 cells, PE anti-human IgG secondary, MFI (PE).

Sequence of human PD-L1 (full length, on cells) (human), Q9NZQ7 (Q9NZQ7 19-290 limits assumed): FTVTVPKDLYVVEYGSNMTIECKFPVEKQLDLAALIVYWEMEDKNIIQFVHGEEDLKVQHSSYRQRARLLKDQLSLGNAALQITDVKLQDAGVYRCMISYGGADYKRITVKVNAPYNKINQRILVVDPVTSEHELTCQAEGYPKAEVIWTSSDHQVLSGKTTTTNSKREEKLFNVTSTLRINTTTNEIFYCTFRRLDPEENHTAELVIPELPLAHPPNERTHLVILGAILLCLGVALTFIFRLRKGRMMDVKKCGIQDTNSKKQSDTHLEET
Sequence of cynomolgus monkey PD-L1 (full length, on CHO cells) (cynomolgus monkey (Macaca fascicularis)), G7PSE7 (G7PSE7 entry or part of it): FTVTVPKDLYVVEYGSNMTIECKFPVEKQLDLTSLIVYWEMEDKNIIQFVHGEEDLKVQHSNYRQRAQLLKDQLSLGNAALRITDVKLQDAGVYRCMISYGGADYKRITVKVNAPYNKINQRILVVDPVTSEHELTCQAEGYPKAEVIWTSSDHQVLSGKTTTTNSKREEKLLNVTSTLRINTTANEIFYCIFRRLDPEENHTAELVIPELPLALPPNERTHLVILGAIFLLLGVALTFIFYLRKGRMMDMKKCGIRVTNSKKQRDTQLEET

B1: bsIgG1-b12-FEAL×547-FEAR (bispecific antibody, not shown: another chain or arm of the molecule)
heavy: EVQLLEPGGGLVQPGGSLRLSCEASGSTFSTYAMSWVRQAPGKGLEWVSGFSGSGGFTFYADSVRGRFTISRDSSKNTLFLQMSSLRAEDTAVYYCAIPARGYNYGSFQHWGQGTLVTVSSASTKGPSVFPLAPSSKSTSGGTAALGCLVKDYFPEPVTVSWNSGALTSGVHTFPAVLQSSGLYSLSSVVTVPSSSLGTQTYICNVNHKPSNTKVDKRVEPKSCDKTHTCPPCPAPEFEGGPSVFLFPPKPKDTLMISRTPEVTCVVVAVSHEDPEVKFNWYVDGVEVHNAKTKPREEQYNSTYRVVSVLTVLHQDWLNGKEYKCKVSNKALPAPIEKTISKAKGQPREPQVYTLPPSREEMTKNQVSLTCLVKGFYPSDIAVEWESNGQPENNYKTTPPVLDSDGSFFLYSRLTVDKSRWQQGNVFSCSVMHEALHNHYTQKSLSLSPGK
light: SYVLTQPPSVSVAPGQTARITCGGNNIGSKSVHWYQQKPGQAPVLVVYDDNDRPSGLPERFSGSNSGNTATLTISRVEAGDEADYYCQVWDSSSDHVVFGGGTKLTVLGQPKAAPSVTLFPPSSEELQANKATLVCLISDFYPGAVTVAWKADSSPVKAGVETTTPSKQSNNKYAASSYLSLTPEQWKSHRSYSCQVTHEGSTVEKTVAPTECS
modifications: not checked
Turning to B1, the EC50 (read off the curve) came to 0.2 µg/mL in experiment [1]; 0.06 µg/mL in experiment [2]; 0.1 µg/mL in experiment [3]; 0.05 µg/mL in experiment [4]; 0.2 µg/mL in experiment [5].
